Assay results published in patent US5866538A, “Insulin preparations containing NaCl” (Novo Nordisk A/S, priority 1996, dated 1999).

Tests used:
[1] = Stability tests of Asp^B28 human insulin preparations in Penfill cartridges, varying NaCl (Example III); type: physicochemical; conditions: phosphate 13.5 mM, pH 7.40
Protocol: 369.4 mg Asp^B28 human insulin was dissolved in water by adding 1.6 ml 0.2N HCl and 49 μl zinc chloride solution (40 mg Zn/ml). 40 g of a solution containing 40 mg/g glycerol, 3.75 mg/g phenol and 4.30 mg/g m-cresol was added to the solution while mixing. 10 g of a solution containing 24.0 mg/g disodium phosphate dihydrate and 11 μl/g 2N sodium hydroxide was added while mixing. Finally varying amounts (0 g to 4.38 g) of a solution containing 40 mg/g sodium chloride were added while mixing up to a sodium chloride concentration mentioned in Table 4. pH was adjusted to 7.40±0.05 and water added up to 100 ml. The Asp^B28 Human insulin preparations were introduced into Penfill® cartridges and subjected to stability tests at 25° C. and 37° C.

[2] = Stability tests of Asp^B28 human insulin preparations in Penfill cartridges, varying phosphate and NaCl (Example IV); type: physicochemical; conditions: 19.6 μg Zn/100 U insulin, pH 7.4
Protocol: 375.7 mg Asp^B28 human insulin was dissolved in water by adding 1.6 ml 0.2N HCl and 49 μl zinc chloride solution (40 mg Zn/ml). 20 g of a solution containing 80 mg/g glycerol, 7.50 mg/g phenol and 8.60 mg/g m-cresol was added to the solution while mixing. Varying amounts (3.71 g to 6.71 g) of a solution containing 24.0 mg/g disodium phosphate dihydrate and 11 μl/g 2N sodium hydroxide was added while mixing, finally varying amounts (0 g to 3.65 g) of a solution containing 40 mg/g sodium chloride were added while mixing so as to obtain a sodium chloride concentration mentioned in table 6. pH was adjusted to pH 7.40±0.05 and water added up to 100 ml. The Asp^B28 Human insulin preparations were introduced into Penfill® cartridges and subjected to stability tests at 25° C. and 37° C. The stability data at the two different temperatures and three different phosphate concentrations and at 19.6 μg Zn/100 U insulin and pH=7.4 are summarized in Tables 4, 5 and 6.

[3] = 6 weeks at 37° C., NaCl added 5 mM, total Cl^- 8.5 mM
[4] = 6 weeks at 37° C., NaCl added 12.5 mM, total Cl^- 16.3 mM
[5] = 6 weeks at 37° C., NaCl added 20 mM, total Cl^- 23.8 mM
[6] = 6 weeks at 37° C., NaCl added 25 mM, total Cl^- 28.8 mM
[7] = 6 weeks at 37° C., NaCl added 30 mM, total Cl^- 33.8 mM
[8] = 12 weeks at 25° C., NaCl added 0 mM, total Cl^- 3.8 mM
[9] = 12 weeks at 25° C., NaCl added 5 mM, total Cl^- 8.5 mM
[10] = 12 weeks at 25° C., NaCl added 12.5 mM, total Cl^- 16.3 mM
[11] = 12 weeks at 25° C., NaCl added 20 mM, total Cl^- 23.8 mM
[12] = 12 weeks at 25° C., NaCl added 25 mM, total Cl^- 28.8 mM
[13] = 12 weeks at 25° C., NaCl added 30 mM, total Cl^- 33.8 mM
[14] = 6 weeks at 37° C., NaCl added 0 mM, total Cl^- 3.8 mM, phosphate 5 mM
[15] = 6 weeks at 37° C., NaCl added 0 mM, total Cl^- 3.8 mM, phosphate 7 mM
[16] = 6 weeks at 37° C., NaCl added 0 mM, total Cl^- 3.8 mM, phosphate 9 mM
[17] = 6 weeks at 37° C., NaCl added 5 mM, total Cl^- 8.8 mM, phosphate 5 mM
[18] = 6 weeks at 37° C., NaCl added 5 mM, total Cl^- 8.8 mM, phosphate 7 mM
[19] = 6 weeks at 37° C., NaCl added 5 mM, total Cl^- 8.8 mM, phosphate 9 mM
[20] = 6 weeks at 37° C., NaCl added 10 mM, total Cl^- 13.8 mM, phosphate 5 mM
[21] = 6 weeks at 37° C., NaCl added 10 mM, total Cl^- 13.8 mM, phosphate 7 mM
[22] = 6 weeks at 37° C., NaCl added 10 mM, total Cl^- 13.8 mM, phosphate 9 mM
[23] = 6 weeks at 37° C., NaCl added 15 mM, total Cl^- 18.8 mM, phosphate 5 mM
[24] = 6 weeks at 37° C., NaCl added 15 mM, total Cl^- 18.8 mM, phosphate 7 mM
[25] = 6 weeks at 37° C., NaCl added 15 mM, total Cl^- 18.8 mM, phosphate 9 mM
[26] = 6 weeks at 37° C., NaCl added 20 mM, total Cl^- 23.8 mM, phosphate 5 mM
[27] = 6 weeks at 37° C., NaCl added 20 mM, total Cl^- 23.8 mM, phosphate 7 mM
[28] = 6 weeks at 37° C., NaCl added 20 mM, total Cl^- 23.8 mM, phosphate 9 mM
[29] = 6 weeks at 37° C., NaCl added 25 mM, total Cl^- 28.8 mM, phosphate 5 mM
[30] = 6 weeks at 37° C., NaCl added 25 mM, total Cl^- 28.8 mM, phosphate 7 mM
[31] = 6 weeks at 37° C., NaCl added 25 mM, total Cl^- 28.8 mM, phosphate 9 mM
[32] = 12 weeks at 25° C., NaCl added 0 mM, total Cl^- 3.8 mM, phosphate 5 mM
[33] = 12 weeks at 25° C., NaCl added 0 mM, total Cl^- 3.8 mM, phosphate 7 mM
[34] = 12 weeks at 25° C., NaCl added 5 mM, total Cl^- 8.8 mM, phosphate 5 mM
[35] = 12 weeks at 25° C., NaCl added 5 mM, total Cl^- 8.8 mM, phosphate 7 mM
[36] = 12 weeks at 25° C., NaCl added 5 mM, total Cl^- 8.8 mM, phosphate 9 mM
[37] = 12 weeks at 25° C., NaCl added 10 mM, total Cl^- 13.8 mM, phosphate 5 mM
[38] = 12 weeks at 25° C., NaCl added 10 mM, total Cl^- 13.8 mM, phosphate 7 mM
[39] = 12 weeks at 25° C., NaCl added 10 mM, total Cl^- 13.8 mM, phosphate 9 mM
[40] = 12 weeks at 25° C., NaCl added 15 mM, total Cl^- 18.8 mM, phosphate 5 mM
[41] = 12 weeks at 25° C., NaCl added 15 mM, total Cl^- 18.8 mM, phosphate 7 mM
[42] = 12 weeks at 25° C., NaCl added 15 mM, total Cl^- 18.8 mM, phosphate 9 mM
[43] = 12 weeks at 25° C., NaCl added 20 mM, total Cl^- 23.8 mM, phosphate 5 mM
[44] = 12 weeks at 25° C., NaCl added 20 mM, total Cl^- 23.8 mM, phosphate 7 mM
[45] = 12 weeks at 25° C., NaCl added 20 mM, total Cl^- 23.8 mM, phosphate 9 mM
[46] = 12 weeks at 25° C., NaCl added 25 mM, total Cl^- 28.8 mM, phosphate 5 mM
[47] = 12 weeks at 25° C., NaCl added 25 mM, total Cl^- 28.8 mM, phosphate 7 mM
[48] = 12 weeks at 25° C., NaCl added 25 mM, total Cl^- 28.8 mM, phosphate 9 mM

Substance: Asp^B28 human insulin
- Asp^B28 Des-amido insulins formed [1, 3]: 4.1%
- Di- & polymers formed [1, 3]: 0.99%
- Asp^B28 Des-amido insulins formed [1, 4]: 3.6%
- Di- & polymers formed [1, 4]: 0.92%
- Asp^B28 Des-amido insulins formed [1, 5]: 3.0%
- Di- & polymers formed [1, 5]: 0.87%
- Asp^B28 Des-amido insulins formed [1, 6]: 3.0%
- Di- & polymers formed [1, 6]: 0.82%
- Asp^B28 Des-amido insulins formed [1, 7]: 2.8%
- Di- & polymers formed [1, 7]: 0.80%
- Asp^B28 Des-amido insulins formed [1, 8]: 2.7%
- Di- & polymers formed [1, 8]: 0.36%
- Asp^B28 Des-amido insulins formed [1, 9]: 2.3%
- Di- & polymers formed [1, 9]: 0.32%
- Asp^B28 Des-amido insulins formed [1, 10]: 1.8%
- Di- & polymers formed [1, 10]: 0.39%
- Asp^B28 Des-amido insulins formed [1, 11]: 1.7%
- Di- & polymers formed [1, 11]: 0.39%
- Asp^B28 Des-amido insulins formed [1, 12]: 1.8%
- Di- & polymers formed [1, 12]: 0.38%
- Asp^B28 Des-amido insulins formed [1, 13]: 1.7%
- Di- & polymers formed [1, 13]: 0.38%
- Asp^B28 Des-amido insulins formed [2, 14]: 4.7%
- Di- & polymers formed [2, 14]: 1.4%
- Asp^B28 Des-amido insulins formed [2, 15]: 4.3%
- Di- & polymers formed [2, 15]: 1.2%
- Asp^B28 Des-amido insulins formed [2, 16]: 4.9%
- Di- & polymers formed [2, 16]: 1.2%
- Asp^B28 Des-amido insulins formed [2, 17]: 3.7%
- Di- & polymers formed [2, 17]: 1.3%
- Asp^B28 Des-amido insulins formed [2, 18]: 3.6%
- Di- & polymers formed [2, 18]: 1.2%
- Asp^B28 Des-amido insulins formed [2, 19]: 4.0%
- Di- & polymers formed [2, 19]: 1.1%
- Asp^B28 Des-amido insulins formed [2, 20]: 3.4%
- Di- & polymers formed [2, 20]: 1.2%
- Asp^B28 Des-amido insulins formed [2, 21]: 3.1%
- Di- & polymers formed [2, 21]: 1.1%
- Asp^B28 Des-amido insulins formed [2, 22]: 3.7%
- Di- & polymers formed [2, 22]: 1.0%
- Asp^B28 Des-amido insulins formed [2, 23]: 3.1%
- Di- & polymers formed [2, 23]: 1.1%
- Asp^B28 Des-amido insulins formed [2, 24]: 3.1%
- Di- & polymers formed [2, 24]: 1.0%
- Asp^B28 Des-amido insulins formed [2, 25]: 3.5%
- Di- & polymers formed [2, 25]: 1.0%
- Asp^B28 Des-amido insulins formed [2, 26]: 2.7%
- Di- & polymers formed [2, 26]: 1.1%
- Asp^B28 Des-amido insulins formed [2, 27]: 2.9%
- Di- & polymers formed [2, 27]: 1.0%
- Asp^B28 Des-amido insulins formed [2, 28]: 3.5%
- Di- & polymers formed [2, 28]: 1.0%
- Asp^B28 Des-amido insulins formed [2, 29]: 3.0%
- Di- & polymers formed [2, 29]: 0.9%
- Asp^B28 Des-amido insulins formed [2, 30]: 2.8%
- Di- & polymers formed [2, 30]: 1.1%
- Asp^B28 Des-amido insulins formed [2, 31]: 3.1%
- Di- & polymers formed [2, 31]: 0.9%
- Asp^B28 Des-amido insulins formed [2, 32]: 2.2%
- Di- & polymers formed [2, 32]: 0.5%
- Asp^B28 Des-amido insulins formed [2, 33]: 2.0%
- Di- & polymers formed [2, 33]: 0.5%
- Di- & polymers formed ([2]; 12 weeks at 25° C., NaCl added 0 mM, total Cl^- 3.8 mM, phosphate 9 mM): 0.4%
- Asp^B28 Des-amido insulins formed [2, 34]: 1.7%
- Di- & polymers formed [2, 34]: 0.4%
- Asp^B28 Des-amido insulins formed [2, 35]: 1.7%
- Di- & polymers formed [2, 35]: 0.4%
- Asp^B28 Des-amido insulins formed [2, 36]: 1.8%
- Di- & polymers formed [2, 36]: 0.4%
- Asp^B28 Des-amido insulins formed [2, 37]: 1.5%
- Di- & polymers formed [2, 37]: 0.4%
- Asp^B28 Des-amido insulins formed [2, 38]: 1.4%
- Di- & polymers formed [2, 38]: 0.4%
- Asp^B28 Des-amido insulins formed [2, 39]: 1.5%
- Di- & polymers formed [2, 39]: 0.4%
- Asp^B28 Des-amido insulins formed [2, 40]: 1.4%
- Di- & polymers formed [2, 40]: 0.4%
- Asp^B28 Des-amido insulins formed [2, 41]: 1.5%
- Di- & polymers formed [2, 41]: 0.4%
- Asp^B28 Des-amido insulins formed [2, 42]: 1.5%
- Di- & polymers formed [2, 42]: 0.4%
- Asp^B28 Des-amido insulins formed [2, 43]: 1.3%
- Di- & polymers formed [2, 43]: 0.4%
- Asp^B28 Des-amido insulins formed [2, 44]: 1.4%
- Di- & polymers formed [2, 44]: 0.4%
- Asp^B28 Des-amido insulins formed [2, 45]: 1.6%
- Di- & polymers formed [2, 45]: 0.4%
- Asp^B28 Des-amido insulins formed [2, 46]: 1.3%
- Di- & polymers formed [2, 46]: 0.4%
- Asp^B28 Des-amido insulins formed [2, 47]: 1.3%
- Di- & polymers formed [2, 47]: 0.4%
- Asp^B28 Des-amido insulins formed [2, 48]: 1.4%
- Di- & polymers formed [2, 48]: 0.4%
